Test results taken from US20240270846A1 (published 2024).
Numbering of substitutions follows the chain as printed. In names and notes the source's numbering stands.

B1: GLS3000 S25A one-arm antibody (H chain CE115HA000) (antibody, human IgG1, kappa, L234A L235A, N297A, name in Kabat numbering)
heavy: QVQLVESGGGVVQPGRSLRLSCAASGFTFSNAWMHWVRQAPGKGLEWVAQIKAKSNNYATYYAESVKGRFTISRDDSKNSLYLQMNSLKTEDTAVYYCRYVHYGAYYGVDAWGQGTTVTVSSASTKGPSVFPLAPSSKSTSGGTAALGCLVKDYFPEPVTVSWNSGALTSGVHTFPAVLQSSGLYSLSSVVTVPSSSLGTQTYICNVNHKPSNTKVDKKVEPKSCDKTHTCPPCPAPEAAGGPSVFLFPPKPKDTLMISRTPEVTCVVVDVSHEDPEVKFNWYVDGVEVHNAKTKPREEQYASTYRVVSVLTVLHQDWLNGKEYKCKVSNKALPAPIEKTISKAKGQPREPQVYTLPPSRCELTKNQVSLSCAVKGFYPSDIAVEWESNGQPENNYKTTPPVLDSDGSFFLVSKLTVDKSRWQQGNVFSCSVMHEALHNHYTQKSLSLSPDYKDDDDK
chain: EPKSSDKTHTCPPCPAPELLGGPSVFLFPPKPKDTLMISRTPEVTCVVVDVSHEDPEVKFNWYVDGVEVHNAKTKPREEQYNSTYRVVSVLTVLHQDWLNGKEYKCKVSNKALPAPIEKTISKAKGQPREPQVCTLPPSRDELTKNQVSLWCLVKGFYPSDIAVEWESNGQPENNYKTTPPVLDSDGSFFLYSKLTVDKSRWQQGNVFSCSVMHEALHNRYTQKSLSLSP
light: DIVMTQSPLSLPVTPGEPASISCRASQSLVHSNRNTYLHWYQQKPGQAPRLLIYKVSNRFSGVPDRFSGSGSGTDFTLKISRVEAEDVGVYYCGQGTQVPYTFGQGTKLEIKRTVAAPSVFIFPPSDEQLKSGTASVVCLLNNFYPREAKVQWKVDNALQSGNSQESVTEQDSKDSTYSLSSTLTLSKADYEKHKVYACEVTHQGLSSPVTKSFNRGEC
notes: one-arm antibody
B2: GLS3000 S27eQ one-arm antibody (H chain CE115HA000) (antibody, human IgG1, kappa, L234A L235A, N297A, name in Kabat numbering)
heavy: B1 heavy
chain: B1 chain
light: B1 light with A25S, S32Q
notes: one-arm antibody
B3: GLS3000 S27aD one-arm antibody (H chain CE115HA000) (antibody, human IgG1, kappa, L234A L235A, N297A, name in Kabat numbering)
heavy: B1 heavy
chain: B1 chain
light: B1 light with A25S, S28D
notes: one-arm antibody
B4: GLS3000 S27eD one-arm antibody (H chain CE115HA000) (antibody, human IgG1, kappa, L234A L235A, N297A, name in Kabat numbering)
heavy: B1 heavy
chain: B1 chain
light: B1 light with A25S, S32D
notes: one-arm antibody
B5: GLS3000 S26D one-arm antibody (H chain CE115HA000) (antibody, human IgG1, kappa, L234A L235A, N297A, name in Kabat numbering)
heavy: B1 heavy
chain: B1 chain
light: B1 light with A25S, S26D
notes: one-arm antibody
B6: GLS3000 S25V one-arm antibody (H chain CE115HA000) (antibody, human IgG1, kappa, L234A L235A, N297A, name in Kabat numbering)
heavy: B1 heavy
chain: B1 chain
light: B1 light with A25V
notes: one-arm antibody
B7: GLS3000 S27aI one-arm antibody (H chain CE115HA000) (antibody, human IgG1, kappa, L234A L235A, N297A, name in Kabat numbering)
heavy: B1 heavy
chain: B1 chain
light: B1 light with A25S, S28I
notes: one-arm antibody
B8: GLS3000 S26P one-arm antibody (H chain CE115HA000) (antibody, human IgG1, kappa, L234A L235A, N297A, name in Kabat numbering)
heavy: B1 heavy
chain: B1 chain
light: B1 light with A25S, S26P
notes: one-arm antibody
B9: GLS3000 S27eP one-arm antibody (H chain CE115HA000) (antibody, human IgG1, kappa, L234A L235A, N297A, name in Kabat numbering)
heavy: B1 heavy
chain: B1 chain
light: B1 light with A25S, S32P
notes: one-arm antibody
B10: GLS3000 S27eK one-arm antibody (H chain CE115HA000) (antibody, human IgG1, kappa, L234A L235A, N297A, name in Kabat numbering)
heavy: B1 heavy
chain: B1 chain
light: B1 light with A25S, S32K
notes: one-arm antibody
B11: GLS3000 S25D one-arm antibody (H chain CE115HA000) (antibody, human IgG1, kappa, L234A L235A, N297A, name in Kabat numbering)
heavy: B1 heavy
chain: B1 chain
light: B1 light with A25D
notes: one-arm antibody
B12: GLS3000 S27eL one-arm antibody (H chain CE115HA000) (antibody, human IgG1, kappa, L234A L235A, N297A, name in Kabat numbering)
heavy: B1 heavy
chain: B1 chain
light: B1 light with A25S, S32L
notes: one-arm antibody
B13: GLS3000 S25T one-arm antibody (H chain CE115HA000) (antibody, human IgG1, kappa, L234A L235A, N297A, name in Kabat numbering)
heavy: B1 heavy
chain: B1 chain
light: B1 light with A25T
notes: one-arm antibody
B14: GLS3000 S27eA one-arm antibody (H chain CE115HA000) (antibody, human IgG1, kappa, L234A L235A, N297A, name in Kabat numbering)
heavy: B1 heavy
chain: B1 chain
light: B1 light with A25S, S32A
notes: one-arm antibody
B15: GLS3000 S27aP one-arm antibody (H chain CE115HA000) (antibody, human IgG1, kappa, L234A L235A, N297A, name in Kabat numbering)
heavy: B1 heavy
chain: B1 chain
light: B1 light with A25S, S28P
notes: one-arm antibody
B16: GLS3000 S27aE one-arm antibody (H chain CE115HA000) (antibody, human IgG1, kappa, L234A L235A, N297A, name in Kabat numbering)
heavy: B1 heavy
chain: B1 chain
light: B1 light with A25S, S28E
notes: one-arm antibody
B17: GLS3000 S27eE one-arm antibody (H chain CE115HA000) (antibody, human IgG1, kappa, L234A L235A, N297A, name in Kabat numbering)
heavy: B1 heavy
chain: B1 chain
light: B1 light with A25S, S32E
notes: one-arm antibody
B18: GLS3000 S25E one-arm antibody (H chain CE115HA000) (antibody, human IgG1, kappa, L234A L235A, N297A, name in Kabat numbering)
heavy: B1 heavy
chain: B1 chain
light: B1 light with A25E
notes: one-arm antibody
B19: GLS3000 S25M one-arm antibody (H chain CE115HA000) (antibody, human IgG1, kappa, L234A L235A, N297A, name in Kabat numbering)
heavy: B1 heavy
chain: B1 chain
light: B1 light with A25M
notes: one-arm antibody
B20: GLS3000 S25L one-arm antibody (H chain CE115HA000) (antibody, human IgG1, kappa, L234A L235A, N297A, name in Kabat numbering)
heavy: B1 heavy
chain: B1 chain
light: B1 light with A25L
notes: one-arm antibody
B21: GLS3000 S27eM one-arm antibody (H chain CE115HA000) (antibody, human IgG1, kappa, L234A L235A, N297A, name in Kabat numbering)
heavy: B1 heavy
chain: B1 chain
light: B1 light with A25S, S32M
notes: one-arm antibody
B22: GLS3000 S27eG one-arm antibody (H chain CE115HA000) (antibody, human IgG1, kappa, L234A L235A, N297A, name in Kabat numbering)
heavy: B1 heavy
chain: B1 chain
light: B1 light with A25S, S32G
notes: one-arm antibody
B23: GLS3000 S25P one-arm antibody (H chain CE115HA000) (antibody, human IgG1, kappa, L234A L235A, N297A, name in Kabat numbering)
heavy: B1 heavy
chain: B1 chain
light: B1 light with A25P
notes: one-arm antibody
B24: GLS3000 S25I one-arm antibody (H chain CE115HA000) (antibody, human IgG1, kappa, L234A L235A, N297A, name in Kabat numbering)
heavy: B1 heavy
chain: B1 chain
light: B1 light with A25I
notes: one-arm antibody
B25: GLS3000 S27eH one-arm antibody (H chain CE115HA000) (antibody, human IgG1, kappa, L234A L235A, N297A, name in Kabat numbering)
heavy: B1 heavy
chain: B1 chain
light: B1 light with A25S, S32H
notes: one-arm antibody
B26: GLS3000 S27aG one-arm antibody (H chain CE115HA000) (antibody, human IgG1, kappa, L234A L235A, N297A, name in Kabat numbering)
heavy: B1 heavy
chain: B1 chain
light: B1 light with A25S, S28G
notes: one-arm antibody
B27: GLS3000 S27eF one-arm antibody (H chain CE115HA000) (antibody, human IgG1, kappa, L234A L235A, N297A, name in Kabat numbering)
heavy: B1 heavy
chain: B1 chain
light: B1 light with A25S, S32F
notes: one-arm antibody
B28: GLS3000 S26E one-arm antibody (H chain CE115HA000) (antibody, human IgG1, kappa, L234A L235A, N297A, name in Kabat numbering)
heavy: B1 heavy
chain: B1 chain
light: B1 light with A25S, S26E
notes: one-arm antibody
B29: GLS3000 S27eN one-arm antibody (H chain CE115HA000) (antibody, human IgG1, kappa, L234A L235A, N297A, name in Kabat numbering)
heavy: B1 heavy
chain: B1 chain
light: B1 light with A25S, S32N
notes: one-arm antibody
B30: GLS3000 S27aN one-arm antibody (H chain CE115HA000) (antibody, human IgG1, kappa, L234A L235A, N297A, name in Kabat numbering)
heavy: B1 heavy
chain: B1 chain
light: B1 light with A25S, S28N
notes: one-arm antibody
B31: GLS3000 S27eI one-arm antibody (H chain CE115HA000) (antibody, human IgG1, kappa, L234A L235A, N297A, name in Kabat numbering)
heavy: B1 heavy
chain: B1 chain
light: B1 light with A25S, S32I
notes: one-arm antibody
B32: GLS3000 S27aY one-arm antibody (H chain CE115HA000) (antibody, human IgG1, kappa, L234A L235A, N297A, name in Kabat numbering)
heavy: B1 heavy
chain: B1 chain
light: B1 light with A25S, S28Y
notes: one-arm antibody

Molecular target: T1, CD3 epsilon homodimer protein (UniProt P07766 23-126)
T1 construct: also called CD3 (CD3 epsilon)
T1 sequence (P07766 23-126): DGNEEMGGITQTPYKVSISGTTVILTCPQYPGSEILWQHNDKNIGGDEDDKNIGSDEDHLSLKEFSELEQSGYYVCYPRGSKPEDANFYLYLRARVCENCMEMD
Experiment: SPR, CD3e homodimer on chip;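 note: surface plasmon resonance at 25 degrees C, antibodies flowed as analyte over CD3 epsilon homodimer amine-coupled to a CM4 chip, running buffer HBS-EP+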
Method: An appropriate amount of CD3 epsilon homodimer protein was immobilized onto Sensor chip CM4 (GE Healthcare Japan Corp.) by the amine coupling method. Then, the antibody having an appropriate concentration was injected thereto as an analyte and allowed to interact with the CD3 epsilon homodimer protein on the sensor chip. Then, the sensor chip was regenerated by the injection of 10 mmol/L glycine-HCl (pH 1.5). The assay was conducted at 25 degrees C., and HBS-EP+(GE Healthcare Japan Corp.) was used as a running buffer. […] Each parameter was calculated using Biacore T200 Evaluation Software (GE Healthcare Japan Corp.).
Specifically, when the amount of the GLS3000-containing antibody bound was defined as X and the amount of the L chain one-amino acid altered form bound was defined as Y, a value of Z (ratio of amounts bound)=Y/X was used.

ratio of amounts bound (altered form / unaltered GLS3000 antibody)	Binder
0.92	B1
1.1	B2
0.79	B3
0.69	B4
0.86	B5
0.73	B6
1	B7
0.78	B8
1.26	B9
1.59	B10
0.18	B11
1.17	B12
0.83	B13
1.03	B14
0.99	B15
0.81	B16

ratio of amounts bound (altered form / unaltered GLS3000 antibody)	Binder
0.76	B17
0.21	B18
0.31	B19
0.24	B20
1.23	B21
1.04	B22
1.01	B23
0.53	B24
1.23	B25
1.03	B26
1.32	B27
0.74	B28
1.16	B29
1.1	B30
1.07	B31
1.1	B32
